Earlier results in PMC8027070.
Like-named read-outs stand apart in the source and are kept apart here. Values belong to the substance of their own block, whether it stands above or below them.

Columns and labels:
VIP (Homo sapiens) [1] = biological target: VIP (Homo sapiens) (UniProt P01282)
PACAP (Homo sapiens) [2] = biological target: PACAP (Homo sapiens) (UniProt P18509)
VIP (Homo sapiens) [3] = biological target: VIP (Homo sapiens) (UniProt P01282); remark: listed apart in the source
PACAP (Homo sapiens) [4] = biological target: PACAP (Homo sapiens) (UniProt P18509); remark: listed apart in the source
VIP (Homo sapiens) [5] = biological target: VIP (Homo sapiens) (UniProt P01282); remark: listed apart in the source
PACAP (Homo sapiens) [6] = biological target: PACAP (Homo sapiens) (UniProt P18509); remark: listed apart in the source

UniProt P18509, sequence (P18509 82-129): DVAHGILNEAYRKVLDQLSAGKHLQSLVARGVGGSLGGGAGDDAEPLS
UniProt P01282, sequence (P01282 125-152): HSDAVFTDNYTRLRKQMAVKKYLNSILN

Kd (VIP (Homo sapiens) [1]): > 500 nM
Kd (PACAP (Homo sapiens) [2]): 0.5 nM
Substance: PAC1 receptor (from UniProt P41586)

Kd (VIP (Homo sapiens) [3]): 1 nM
Kd (PACAP (Homo sapiens) [4]): 1 nM
Substance: VPAC1 receptor (from UniProt P32241)

Kd (VIP (Homo sapiens) [5]): 1 nM
Kd (PACAP (Homo sapiens) [6]): 1 nM
Substance: VPAC2 receptor (from UniProt P41587)
